Source: a protein production outcome set (Wang et al. 2014)

Experiment: label from the status in PepcDB records
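Note: failed if final PepcDB status was selected cloned or expressed and not failed if soluble or beyond.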

MAYSYTEKKRIRKDFSKLPDVMDVPYLLAIQLDSYREFLQAGATKEQFRDVGLHAAFKSVFPIISYSGNAALEYVGYRLGEPAFDVKECVLRGVTFAVPLRVKVRLIIFDRESSNKAIKDIKEQEVYMGEIPLMTENGTFIINGTERVIVSQLHRSPGVFFDHDRGKTHSSGKLLYSARIIPYRGSWLDFEFDPKDCVFVRIDRRRKLPASVLLRALGYSTEEILNAFYATNVFHIKGETLNLELVPQRLRGEVASIDIKDGSGKVIVEQGRRITARHINQLEKAGVSQLEVPFDYLIGRTIAKAIVHPATGEIIAECNTELTLDLLAKVAKAQVVRIETLYTNDIDCGPFISDTLKIDNTSNQLEALVEIYRMMRPGEPPTKEAAETLFGNLFFSAERYDLSAVGRMKFNRRIGRTEIEGPGVLSKEDIIDVLKTLVDIRNGKGIVDDIDHLGNRRVRCVGEMAENQFRVGLVRVERAVKERLSMAESEGLMPQDLINAKPVAAAIKEFFGSSQLSQFMDQNNPLSEITHKRRVSALGPGGLTRERAGFEVRDVHPTHYGRVCPIETPEGPNIGLINSLATYARTNKYGFLESPYRVVKDSLVTDEIVFLSAIEEADHVIAQASATLNEKGQLVDELVAVRHLNEFTVKAPEDVTLMDVSPKQVVSVAASLIPFLEHDDANRALMGSNMQRQAVPTLRADKPLVGTGMERNVARDSGVCVVARRGGVIDSVDASRVVVRVADDEVETGEAGVDIYNLTKYTRSNQNTCINQRPLVSKGDVVARGDILADGPSTDMGELALGQNMRVAFMPWNGFNFEDSICLSERVVQEDRFTTIHIQELTCVARDTKLGPEEITADIPNVGEAALNKLDEAGIVYVGAEVQAGDILVGKVTPKGETQLTPEEKLLRAIFGEKASDVKDTSLRVPTGTKGTVIDVQVFTRDGVERDSRALSIEKMQLDQIRKDLNEEFRIVEGATFERLRAALVGAKAEGGPALKKGTEITDDYLDGLERGQWFKLRMADDALNEQLEKAQAYISDRRQLLDDKFEDKKRKLQQGDDLAPGVLKIVKVYLAIKRRIQPGDKMAGRHGNKGVVSVIMPVEDMPHDANGTPVDIVLNPLGVPSRMNVGQILETHLGLAAKGLGEKINRMLEEQRKVAELRKFLHEIYNEIGGREENLDELGDNEILALAKNLRGGVPMATPVFDGAKEREIKAMLKLADLPESGQMRLFDGRTGNQFERPTTVGYMYMLKLNHLVDDKMHARSTGSYSLVTQQPLGGKAQFGGQRFGEMEVWALEAYGAAYTLQEMLTVKSDDVNGRTKMYKNIVDGDHRMEAGMPESFNVLIKEIRSLG
protein production: failed

MDIKVSGRKTTVTDALRAHVDEKIGEALKVFDIEPMTVDVVLRYEKNPSNPNPAIVEVTARARGSVIRVAEHGADMYAAIDLSADKVTRQLRKFKTKVVDNRQGGASAADVAPVERVEDLADLLLPEEDDDLLVREKVIDVTPMTEEQALVQTDLLGHDFYVFENATTGLINVVYHRKNGGYGIIKPRIETLDE
protein production: failed

MQSPPHDPASALAIRNHYRQSQSRAARLRLLVDTGQELIQLPPEAMRKCVLQRACAFVAMDHGLLLEWGADNGVQTTARHGSKERLSTLETTADPLAIGPQWLERPGTHLPCVLLLPLRGADEGSFGTLVLANSVAISAPDGEDIESLQLLATLLAAHLENNRLLEALVARDRTMSQLVRQLFTAQEDERKRVAYDLHDGLAQTLAGLHQRLQGFAGRCPELPAQLDADLQAILKLAQHCVGEGRQLISGLRPAVLDDFGLWQAVDKEADRLREAGIIVQWTSQSLERLPSHLEIALFRIAQEGINNVLKHANASCVELALELSDGNVSLRLQDNGRGFITEKPINGTGVQKLGLVAMQERASLLGGRLTCVSRPGRGTRLRTIVPFTADKAIT
protein production: failed

VELPTEYTEQFSSQPTLNSKPIIKFEFTGNSVDAPVLSMASKKFGIDFSILMSQIDYAGGVKFGFVIAEVEGDGEAITAAKCYLINNNVKVEVLGYVG
protein production: failed

MNLYSLLLSLITGCFLLAQGGTSFSSPVETEKSAVTAQSILEKADEIRFPQDSFQVNVAIRTAAPDHAEDLYRYQVLSKGNENSIVMITEPASERGQAILMKGRDLWVFMPSVSQPIRLSLSQRLTGQVANGDIARANFTGDYHPQLLRNESIDDEDYYVLELTGIDRSVTYQKVLLWVNQSNFRPYKAEFYSVSGRLLKTSRYENFDNILGEMRPTRIIMEDALKSGEVSVLDYSDMKLRDLPDKIFTKDYLKRLE
protein production: failed

MILVFLDNMASIKDLNLIDEINDSSNLKLINDRLKLLFWTKNPEITDEENKKKYLDFLNEYWDTLRAYGAGDLELFPDKINYLTLILAANSKNHNIYIKKLAEKYAEKIPIEDGDSKINIWDFIDVAANSRNNDLHLERMILEGDTVLLNQKNQSIYNFEKIRLKLKNYVEKVRNAEMPKEIKDLLVKKSEEAFEGINIGYNIESGIKVSTKEYSGEIPEDWHPPCMREILNDILSGGSPSHYARRSFVVYRFVSQFDPNLRPIEEGIITNRSAQDIATEEQIERFLDEIINIFKSVGDFDVEKTKYYISHNIGYKVANHITHCEYCKNWRDDGGKGLGYYCRPDSTCSRKDIIHPLDYLCHNINRHVKKSELEHHHHHH
protein production: failed

MIPRVRAPELPQNYPWLNTEQPLSIKQLNGRVVILDFWTYCCINCLHVLPDLKYLEQKYKDSLTVIGVHSAKFDNEQETENIRQAILRYDIEHPVLVDKDFRVWQEYAVRAWPTLMVIDPKGYVIGYVSGEGNRDKLDQLITQVIQEHQGAINFQQLSLTLEKQRQPLITPLAFPGKVLATPSGLFVADSGHHRIVVSDFNGEILHLIGNGKSGLTDGNFQEAQFSAPQGMAFDMENQILYLADTENHALRRVDINQQTVETIAGTGEQSRNIQPHGGVGLETALNSPWDLVNIENSLYIAMAGVHQIWQMDLASGVIKTYAGTGVEACLDASLTESAFAQPSGITNNEQELYIADSEISSIRGVGLVEPQEVRTVCGSGGLFGFGDVDGQGEDVRLQHCLGVEYFQNYLWVADTYNHKIKSVSPHTGNCQTVLGDGLAGLQNGQGKNTRFFEPSGLSAIDSYLYISDTNNHVIRRVDLRTLEVTTMQFNGLCAPDVCIPNNFLEHHHHHH
protein production: failed

MNQHTLLPKKTERLQYFGSVSPIKGEKPVEKEKMKDLQNIRKDYFFDIQHVGVANVSHPVTITSAMMPAEQTTAANFTMTCNLPRNQKGINMSRLTELLQVYHQNGWILSFSSLQQFTKELAENMDTSSATVEVRFPWFFERKSPKLEKAGLMHADIFMSVTYRKDQPFKQRAGISAKVTTLCPCSKEISEYSAHNQRGTVKHLGRIFTRAASLPSDVKADLPHAAESNASARLHPVLKRPDEKAVTETAYENPRFVEDLARLIAADLFELEWVSAFEIECRNEESIHLHRCLCEVCFSKEVDKI
protein production: failed

MQPIDRAQAQQRANDILVFQRELQRLDQEQAFRLEPAQARQLADYHLALLDSYRDRFDIDHDLRSQQLSLGMRVASFFGALAFAASVFLLFYRFWGLFPTVAQVAILIGSAFAAFFATLWVQAKDASGYFSKLAAMVAFACFVLDLTMLGQIFNVTPSDLALVPWALYALLLAYLCNARLLLAAAILCVMGFIAARVGTWGGGYWLSVGERPENFFPAAALIFAVPLCFDQRNFSGFAVIYRVFALLGLFLPMLVLANWGSGSYLALPSALIEGLYQVAGFVAAALVIWLGARRNWADVSNTGITFFVIFLYTKFFDWWWEAMPKYLFFLVLGLSALLILLVLRRLRTPLGIAARTDA
protein production: failed

MSITRRDILKGAAATGAIAATSVLSGCQKTGATNSMADLAHKIKRPNLLIIFPDEMRAQALGFMGEDPSLTPNLNRFAKDSAVLKQAVSNFPLCTPFRGMLMTGQYPYRNGIQGNSHTATPGMFGGKDFGIELKKNQSTWSDILSQQGYSMGYIGKWHLDAPEAPFVPSYNNPMEGRYWNDWTTPDRRHGFDFWYSYGTYDKHLTPMYWTNDTPRDQPLHINQWSPEHEADIAIKYLRNENGNYRNNDKPFTLVVSMNPPHSPYDQVPQKYLDRFKESSRTLNSRPNVQWDKEYLEGYGPEYFKEYMAMVNGVDEQFGRIVDELDALNLAKDTLVVFFSDHGCCMGSNGNPTKNVHYEEAMRIPMMFRWPGKIAPKSDDLLFSAPDIYPTLFGLMGMDDLIPDTVEGTDFSKTVKSESGDIKPTSQFYTFMPYGGQSYGRRGIRNKQYTLMIDRKIGKPLTYVLHDNQVDPYQMKNIAEQQPELISQLIQNELMPWLEHTGDPWRPTEVPKNTANAYT
protein production: failed

MEVSKIRIHDLPEEERPRERLIKNGPESLSNAELLGIVLRTGSREENVISLCSRILMEYNIKQLSLANVSKLMQVNGIGKAKAAQIAAVFELARRLETFVEEPKRKISSPKDVYTLMYPKMREQKKEKFITLYLDTKNQILKEEVVSIGSLNASIVHPREVFKSALMESSASVIMVHNHPSGDPSPSREDIMVTEKLVEGGKLLGIDILDHIIIGDGRYVSLKDEGFVK
protein production: not failed

MVMQQIKKIGNSFWYMTPVSETDRPILGMVVGQEKTLMIDAGNSEEHAQLFLEMLKEQNVSNPDFVALTHWHWDHIFGLPVLQDALSIAHSETKKEMRTLVSYEWTDEALDARVKEGTEIAFCADCIKKEFEEKARNINIIPPTLTFQNQMELDLGEVTCVLKHVGGDHAHDSVVIYVKEEKILFLGDCIYADIFSSKWNYTTKRTFALIDELEKFDAETYILSHGEAINREEFLQEIRMLKAVGTYTEAHKGDEEKIKAAYKQELDRELNEDELETITYFVNGYEMNNQ
protein production: failed

MSLDNSRTRPRVGHIQFLNCLPLYWGLARTGTLLDFELTKDTPEKLSEQLVRGDLDIGPVTLVEFLKNADDLVAFPDIAVGCDGPVMSCVIVSQVPLDRLDGARVALGSTSRTSVRLAQLLLSERFGVQPDYYTCPPDLSLMMQEADAAVLIGDAALRANMIDGPRYGLDVHDLGALWKEWTGLPFVFAVWAARRDYAEREPVITRKVHEAFLASRNLSLEEVEKVAEQAARWEAFDEDTLAKYFTTLDFRFGAPQLEAVTEFARRVGPTTGFPADVKVELLKPEGHHHHHH
protein production: not failed

MSLTTSHFIPFPREMVWDWHTRKGAVARLTPPFIPLNPITQAERLADGTTIFSLPAGLKWVARHDLSGFLNGSRFTDVCLTAPVKALANWRHVHNFVDQDGGTLITDSVSTRLPASTLTGMFAYRQTQLIEDLKFLSRTSTLFDGSPLTVAITGSRGLVGRALTAQLQTGGHEVIQLVRKEPKPGKRFWDPLNPASDLLDGADVLVHLAGEPIFGRFNDSHKEAIRESRVLPTKFLAELVAESTQCTTMISASAVGFYGHDRGDEILTEESESGDDFLAEVCRDWEHATAPASDAGKRVAFIRTGVALSGRGGMLPLLKTLFSTGLGGKFGDGTSWFSWIAIDDLTDIYYRAIVDAQISGPINAVAPNPVSNADMTKILATSMHRPAFIQIPSLGPKILLGSQGAEELALASQRTAPAALENLSHTFRYTDIGAAIAHELGYEQLADFAQQQEIEAERKQERAELKAAKKIAKKAPVLEESPTNLEDPEEVEQSILSSILNFRRKRNDLEHHHHHH
protein production: not failed

MKNFLETIEDMILIINREGRLLYANTAVPKKLGYPHEELMSMHILTITSAGKMAEGEKILAELFAGKKESLPLSLEKKEGTSIPAKARIWQGKWHNEPCLFAIIKDLSKEERASSPPFLEPDEIHTGISGAAWCEKPDFASDISCELKDEEPSKPRVLIVDDQLFNLKLLESALKEDYIVMTADNGIEALELATGKSQPDIILLDIIMPVMDGYEVCIRLREMPETRDIPVIFLSALKNEKNEEYALQLGVVDYITKPFSLPIIKGRLRNHVEQKKYRDRQKENSYIDELTQIANRRKFNETVTIEWNRARRNGNSLSVLMIDVDCFKKYNDFYGHLEGDKCLYKIAQTLKSNVKRSSDLVARWGGEEFACVLTDTDRIGAMLVGERLRRAVVKLNIPSEISDVDRVVTASIGVATALPAVDNSLEELLHKADMALYKAKKTGRNCVCTP
protein production: failed

MKLEIGYNHPFEIRKERYESDHVCNFSVLYISDLHLTVFSKDICTRLSKCIQELNPTIIILGGDYIDCRNGWDYLSTFFKFLSARKNVFSIAGNHDYFYGIDEIKKLIESNNIHWLENQSAVVNIQEYNILLTGNNETQSSIPADFNILCLHKPVSLDAFKIPYHIAFAGHLHGCQCVFWQNENGLYPGRFFYTFNFLRRQVKNCLYLISKGLGDTLPIRFNCKKDIIFVEIKNNSNKLEHHHHHH
protein production: failed
